Assay results as given in paper PMC6306002.

Tested on: T1, OhsR-SSM (S-mycothiolated OhsR) (Corynebacterium glutamicum), ORF:a3d30e29
T1 sequence: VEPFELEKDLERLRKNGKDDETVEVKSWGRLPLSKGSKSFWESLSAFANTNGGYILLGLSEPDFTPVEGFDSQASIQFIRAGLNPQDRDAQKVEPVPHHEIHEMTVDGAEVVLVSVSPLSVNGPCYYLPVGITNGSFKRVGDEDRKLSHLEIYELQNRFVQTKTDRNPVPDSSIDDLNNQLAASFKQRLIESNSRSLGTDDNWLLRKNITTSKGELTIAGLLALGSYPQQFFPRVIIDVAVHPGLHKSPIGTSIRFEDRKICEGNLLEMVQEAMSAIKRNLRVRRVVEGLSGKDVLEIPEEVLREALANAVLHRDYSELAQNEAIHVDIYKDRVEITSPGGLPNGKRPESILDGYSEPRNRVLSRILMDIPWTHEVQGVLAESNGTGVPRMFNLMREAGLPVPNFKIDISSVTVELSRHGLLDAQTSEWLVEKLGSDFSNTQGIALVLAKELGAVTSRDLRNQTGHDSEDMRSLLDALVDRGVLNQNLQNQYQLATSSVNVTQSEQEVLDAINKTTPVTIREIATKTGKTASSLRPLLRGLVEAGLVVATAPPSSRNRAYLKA
Experiment: EMSA
Settings: EMSA: 20 mM Tris-HCl pH 7.4, 4 mM MgCl2, 100 mM NaCl, 10% glycerol, room temperature 30 min; 20 ng DNA, 0-4 ug OhsR; 6% native PAGE, 0.5x TBE, SYBR Green

“CACCTTGTTGGTGGGCCGGGATTTTTGTTGTTTAGATTTTTGAAAGCACACTTTTGTCCCTTAACTAGTGCGTGTGTACATTCGACACCAAGATTTGGGCAATATGGTGCCCAAAATCAGGAAATCTTGCTGTCTAATGCACAACGGAAAACTGCTCACGGACGAACTAGTTGTAGCGAGCGTATTCTTTGTGTTCTCTC (double strand) [Pohr (ohr promoter, 200 bp)]” was tested, and the binding was “binds”.
